Experimental data reported in patent US20210002644, “ANTI-CHYMASE APTAMER AND USE FOR SAME” (RIBOMIC INC., published 2021).

Tests used:
[1] = target: T1, chymase (native, human skin mast cell) (Homo sapiens, UniProt P23946 P23946:22-247); assay: inhibition; angiotensin I substrate; details: tags: Calbiochem Human Skin
T1 sequence: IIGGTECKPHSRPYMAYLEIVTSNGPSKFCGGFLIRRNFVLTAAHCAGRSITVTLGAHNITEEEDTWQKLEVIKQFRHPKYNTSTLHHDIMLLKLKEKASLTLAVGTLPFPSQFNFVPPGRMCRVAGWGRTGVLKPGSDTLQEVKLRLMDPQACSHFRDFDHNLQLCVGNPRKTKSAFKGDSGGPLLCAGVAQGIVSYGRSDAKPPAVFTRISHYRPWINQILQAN
Procedure: The total volume of solution for an enzyme reaction in the assay was set to 50 μL, and the reaction was performed in solution C buffer. At first, native (manufactured by Calbiochem) was diluted with solution C to give 5 μL thereof. Here, the native is chymase purified from human skin mast cell. The nucleic acid was serially diluted with solution C at a concentration of 0.0027-2 μM to give 25 μL thereof. The chymase solution (5 μL) and the nucleic acid solution (25 μL) were mixed, and the mixture was incubated at 37° C. for 5 min. On the other hand, […] angiotensin I (manufactured by PEPTIDE […], INC.) was prepared in solution C to give 20 μL thereof, which was incubated at 37° C. for 5 min. The angiotensin I solution was added to a mixture of chymase and nucleic acid to start an enzyme reaction. The final chymase concentration of the reaction solution was 0.5 nM, and the final substrate concentration was 50 μM. After reaction at 37° C. for 90 min, ice-cooled 30% trichloroacetic acid solution (25 μL) was added to quench the reaction. The whole mixture was centrifuged at 4° C., 14000 rpm for 10 min, and the supernatant (30 μL) was used for the next fluorescence induction reaction.
The above-mentioned supernatant (30 μL) was added to a 96 well plate (black, manufactured by Costar), a solution (15 μL) of 2% o-phthalaldehyde (manufactured by SIGMA) in methanol and 0.3M NaOH solution (170 μL) were added to each well, and the mixture was incubated at room temperature for 10 min. Then, 3M HCl solution (25 μL) was added to quench the reaction. The plate was set on a microplate reader SpectraMax190 (manufactured by Molecular device) and the fluorescence intensity was measured at an excitation wavelength of 355 nm and a fluorescence wavelength of 460 nm.
The nucleic acids of SEQ ID NO: 11-20 were all produced by chemical synthesis. In the evaluation of SEQ ID NO: 11-20, a method similar to the evaluation method of inhibitory activity against chymase shown in Example 1 by using angiotensin I as a substrate was used for measurement. […] The IC₅₀ value is a mean of 2 or 3 measurements.

[2] = target: T2, chymase (recombinant, SIGMA) (UniProt P23946 P23946:22-247); assay: inhibition; Suc-AAPF-MCA substrate, 37 C; details: tags: SIGMA recombinant
T2 sequence: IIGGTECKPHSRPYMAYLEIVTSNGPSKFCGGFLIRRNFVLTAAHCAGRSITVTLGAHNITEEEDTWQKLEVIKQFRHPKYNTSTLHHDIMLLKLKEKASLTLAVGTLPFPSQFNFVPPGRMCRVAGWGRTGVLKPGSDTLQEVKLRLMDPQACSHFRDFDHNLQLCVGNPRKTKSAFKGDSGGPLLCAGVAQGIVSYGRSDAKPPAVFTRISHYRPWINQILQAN
Procedure: (§1) By detecting the fluorescence of this AMC, the enzyme activity of chymase can be determined. The assay was performed using a 96-well plate (F16 Black Maxisorp Fluoronunc, manufactured by Nunc), with a reaction mixture volume of 100 μL, in solution C as a buffer solution. Here, the solution C is a mixed solution of 145 mM sodium chloride, 5.4 mM potassium chloride, 1.8 mM calcium chloride, 0.8 mM magnesium chloride, 20 mM Tris (pH 7.6), and 0.05% Tween20. First, nucleic acid was serially diluted in solution C to obtain 50 μL solutions. After 10 μL of the 1 mM substrate prepared in solution C was added thereto, the plate was set to the microplate reader SpectraMax190 (manufactured by Molecular Devices Corporation), and incubated at 37° C. for 5 minutes. Separately, 0.05 μg of chymase (recombinant, manufactured by SIGMA) was diluted in solution C to obtain a 40 μL chymase solution, and incubated at 37° C. for 5 minutes. The chymase solution was added to the mixture of the nucleic acid and substrate to initiate an enzyme reaction. The final chymase concentration in the reaction mixture was 16.7 nM, the final substrate concentration being 100 μM. The plate containing the reaction mixture was set to the microplate reader SpectraMax190 (manufactured by Molecular Devices Corporation), and examined for time-dependent changes in the fluorescence intensity at 37° C. for 5 minutes (or 30 minutes) (excitation wavelength 380 nm, detection wavelength 460 nm). A linear approximation of the increase in the fluorescence of the AMC released from the substrate by chymase activity was generated, and its slope was taken as the initial velocity […]. For control, samples were treated and analyzed in the same manner in two cases: use of a 30N (a nucleotide of 30 consecutive bases represented by N; N is A, G, C or T) nucleic acid pool (negative control), and use of chymostatin, a known chymotrypsin-like serine protease inhibitor (positive control). Taking the initial reaction velocity without the nucleic acid and inhibitor (V₀) as a 100% enzyme activity, the inhibitory rate of each test substance was calculated using the following equation: […]

[3] = target: T2, chymase (recombinant, SIGMA); assay: inhibition; Suc-AAPF-MCA substrate, 0.005 ug chymase, single measurement; details: tags: SIGMA recombinant
Procedure: as §1, with “The” for “By detecting the fluorescence of this AMC, the enzyme activity of chymase can be determined. The”
In the evaluation of SEQ ID NO: 21-25, a method similar to the evaluation method of inhibitory activity against chymase shown in Example 1 by using MCA as a substrate except that the amount chymase was changed from 0.05 μg to 0.005 μg was used for measurement.

Work on GAUGAUCGGACAUAACAUUGUUGGGGUGUCA (ssRNA, 2'-F pyrimidines (U, C); purines 2'-OH) [SEQ ID NO: 20] yielded an IC50 [1] of 1.8 nM.

B1: SEQ ID NO: 4 (ssRNA)
RNA: GGGAGCAGGAGAGAGGUCAGAUGUAACUCUAUUGAGGGGCAUCAGCACAGUAGCCUAUGCGUGCUAGUGUGA
modifications: 2'-F pyrimidines (U, C); purines 2'-OH
Work on B1 yielded an IC50 [2] of 10.8 nM.

B2: SEQ ID NO: 5 (ssRNA)
RNA: GGGAGCAGGAGAGAGGUCAGAUGAUGACCGAUUAUAGGUAACCACUUAGGGGGCCUAUGCGUGCUAGUGUGA
modifications: 2'-F pyrimidines (U, C); purines 2'-OH
With B2 the IC50 [2] was 7 nM.

B3: SEQ ID NO: 8 (ssRNA)
RNA: GGGAGCAGGAGAGAGGUCAGAUGAUUGACGACUAUAGGUAACCUUUACGGGGGCCUAUGCGUGCUAGUGUGA
modifications: 2'-F pyrimidines (U, C); purines 2'-OH
B3 was tested, and the IC50 [2] was 35 nM.

For GGCAGAUGAUCGGACAUAACAUUGUUGGGGUGUCAA (ssRNA, 2'-F pyrimidines (U, C); purines 2'-OH) [SEQ ID NO: 16], the IC50 [1] was 2 nM.

B4: SEQ ID NO: 3 (ssRNA)
RNA: GGGAGCAGGAGAGAGGUCAGAUGAUAACCAGUUGGGGGGUCAAUUACAUGGGACCUAUGCGUGCUAGUGUGA
modifications: 2'-F pyrimidines (U, C); purines 2'-OH
B4 gave an IC50 [2] of 26 nM.

B5: SEQ ID NO: 6 (ssRNA)
RNA: GGGAGCAGGAGAGAGGUCAGAUGUCAUGACUUAUAGGUAACCGAUAAUGGGGGCCUAUGCGUGCUAGUGUGA
modifications: 2'-F pyrimidines (U, C); purines 2'-OH
In the case of B5, the IC50 [2] is reported as 5.5 nM.

Binder GGGUCAGAUGAUCGGACAUAACAUUGUUGGGGUGUCAAGGCCC (ssRNA, 2'-F pyrimidines (U, C); purines 2'-OH) [SEQ ID NO: 11] has an IC50 [1] of 54.7 nM.

B6: SEQ ID NO: 7 (ssRNA)
RNA: GGGAGCAGGAGAGAGGUCAGAUGUUUGGUAGUAACUGGAAUAGGGGCUACAGGCCUAUGCGUGCUAGUGUGA
modifications: 2'-F pyrimidines (U, C); purines 2'-OH
B6 was tested, and the IC50 [2] was 52 nM.

B7: SEQ ID NO: 21 (ssRNA)
RNA: GGCAGAUGAUCGGACAUAACAGGUUAGAUAGAGUUAAAAACCUGGGGUGUCAA
modifications: 2'-F pyrimidines (inferred)
For B7, the IC50 [3] was 5.7 nM.

In the case of UGAUCGGACAUAACAUUGUUGGGGUGUCAA (ssRNA, 2'-F pyrimidines (U, C); purines 2'-OH) [SEQ ID NO: 18], the IC50 [1] is reported as 2.1 nM.

For GAUGAUCGGACAUAACAUUGUUGGGGUGUCAA (ssRNA, 2'-F pyrimidines (U, C); purines 2'-OH) [SEQ ID NO: 17], the IC50 [1] was 1.4 nM.

B8: SEQ ID NO: 22 (ssRNA)
RNA: GGCAGAUGAUCGGACAUAACAGUUAGAUAGAGUUAAAAACUGGGGUGUCAA
modifications: 2'-F pyrimidines (inferred)
B8 showed an IC50 [3] of 5 nM.

GGCAGAUGAUCGGACAUAACAUUGUUGGGGUGUCAAGCC (ssRNA, 2'-F pyrimidines (U, C); purines 2'-OH) [SEQ ID NO: 14] showed an IC50 [1] of 6.8 nM.
